Laboratory results reported in a protein production outcome set (Wang et al. 2014).

Assay: label from the status in PepcDB records
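Note: failed if final PepcDB status was selected cloned or expressed and not failed if soluble or beyond.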

In the case of “MNTVCTACMATNRLPEERIDDGAKCGRCGHSLFDGEVINATAETLDKLLQDDLPMVIDFWAPWCGPCRSFAPIFAETAAERAGKVRFVKVNTEAEPALSTRFRIRSIPTIMLYRNGKMIDMLNGAVPKAPFDNWLDEQLSRDPNS”, the protein production is reported as “not failed”.

For “MCSNNNTSSGSYGELQLHDESSGSCRKKQKKDKVRRRGPGVAELEKIRLQEEYKPPLSSSPSLPNIDHHHHTLFAPASSVYDLVMTSPNFSFPEKLASTLPVFPISPDATQNRSMGITPVQETGTTTSNPIAIDSPTSIPRHYPRFIPLGLQYEQQQQKLKDLDETMQWRSKKPFYSFIPSGDPSNDDQEQRPCDLFGSAADHGIDLNLKL”, the protein production was “failed”.

For “MSITYSAISFSGFSPKSVPFAIHSVTRRQFLNPNTFYRFGFSPSLQGSSIEFSLQLNSRVVLSKERRSLPLVVRNDRPQNEDLPKQYTRREKKPFPVPIVDLRRAARERVKNNKDKPKRPLPPPKNGMVVKSLVPLAYKVYNARIRLINNLHRLMKVVRVNACGWCNEIHVGPYGHPFKSCKGPNTSQRKGLHEWTNSVIEDVIVPLEAYHLFDRLGKRIRHDERFSIPRVPAVVELCIQGGVEIPEFPAKRRRKPIIRIGKSEFVDADETELPDPEPQPPPVPLLTELPVSEITPPSSEEETVSLAEETLQAWEEMRAGAKKLMRMYRVRVCGYCPEVHVGPTGHKAQNCGAFKHQQRNGQHGWQSAVLDDLIPPRYVWHVPDVNGPPMQRELRSFYGQAPAVVEICAQAGAVVPEHYRATMRLEVGIPSSVKEAEMVV”, the protein production was “failed”.

For “MQRTLGEIMKIYFATGNPNKIKEANIILKDLKDVEIEQIKISYPEIQGTLEEVAEFGAKWVYNILKKPVIVEDSGFFVEALNGFPGTYSKFVQETIGNEGILKLLEGKDNRNAYFKTVIGYCDENGVRLFKGIVKGRVSEEIRSKGYGFAYDSIFIPEEEERTFAEMTTEEKSQISHRKKAFEEFKKFLLDRI”, the protein production was “not failed”.

For “MNALGTKARVVGTGVLVLGLLSGCTTAAPSPSSPTPTQATPTQAASSNAGPGPASSAAVPAQQSAEAKLSPEAQIETDRLLILAAKANDAAKVRELIAAGGNVNAKDEIQDSAFLYAGAEGFNEVLQLTLAAGADVRSTNRYGGTALIPASEHGHTETVRILIAAGVPVDHVNNLGWTAMQEAILPNNGGPNQQDVVRQLLAAGATPDIRDPQGRTALQNAERLGFTEIAALIRNR”, the protein production was “failed”.

In the case of “MNNPKPCEWKSNELSRGYIADYKAFNFVDGEGVRCSLYVSGCPFHCEGCYNKAAQSFKYGKPYTKELEDDILKDIGHESVQGLTLLGGEPFLNTATCLSVVKRIRATYGKTKDIWSWTGYTWDEMMQETTDKLELLSLIDVLVDGRFEQKLFDPNLAFRGSSNQRIIDVQKSLAADEVVLYELLEHHHHHH”, the protein production is reported as “not failed”.

For “MSPENKICMEQSEDGDLDAGDELFEEVDGDGKGEIFANRELLNIDHVPDENRIVGRDEHITELANEIGPAVTGSPPNSVILYGKTGSGKSLVANHVMERARREAQRRDRRLATVTVDCAQSRGEADTVQTIADKINRSTSGVTVPTRGISTNEYYNRLWQILGTEYDAALITLDEVDRLSDDDILMILSRAREAGKVDVPIGIISISNKVNFREQMTERVKSSLGHNEMIFDPYDGEQLRQILENRKDAFQEDILMPGVIPKTAALAAQRHGDARKAIRLLRHAGDYAKTNNIGTVKESHLELAQEQAEVERLKELISGLPPHSKYVLYALANLTDGTTNSNDWFRTTVIYDVYEEVCKTEATDTLTTDTIRGLLNELAFLEITESNQEHGGMGKGTYKEHRLLWDPNVVFKMNPGSAQVDTDR”, the protein production was “failed”.

With “MGQKIHAFMFPWFAFGHMTPYLHLGNKLAEKGHRVTFLLPKKAQKQLEHQNLFPHGIVFHPLVIPHVDGLPAGAETASDIPISLVKFLSIAMDLTRDQIEAAIGALRPDLILFDLAHWVPEMAKALKVKSMLYNVMSATSIAHDLVPGGELGVAPPGYPSSKALYREHDAHALLTFSGFYKRFYHRFTTGLMNCDFISIRTCEEIEGKFCDYIESQYKKKVLLTGPMLPEPDKSKPLEDQWSHWLSGFGQGSVVFCALGSQTILEKNQFQELCLGIELTGLPFLVAVKPPKGANTIHEALPEGFEERVKGRGIVWGEWVQQPSWQPLILAHPSVGCFVSHCGFGSMWESLMSDCQIVFIPVLNDQVLTTRVMTEELEVSVEVQREETGWFSKENLSGAIMSLMDQDSEIGNQVRRNHSKLKETLASPGLLTGYTDKFVDTLENLVNEQGYIS” the protein production was “failed”.

In the case of “MMIAAAIFTTCVDGNKFFYHREIKVLRHLKRFNKPALKSIKSEDGDVIDCVPITNQPAFDHHLLKNHTIQMRPSFYPVSDSTYTKREAKAVTQVWHKAGECPKNTVPIRRTKKEDLLRPKSIRSFGRKSHQSIPRTTTFDPTLGHQYALMGVRNGKFYGTEVAINLWKPYVQIPKEFSLAQTWVVSGNGSSLNTIEAGWQVYPELYDDNNPRFFVYWTRDGYRKTGCYNLLCSGFVQTSNRYTVGGSITTMSRYRGTQYDLSVLIWKDQKTGNWWLRVNEKDVIGYWPGSLFNSLGREATRVEWGGEIINSKTGGRHTTTDMGSGHFADEGFKKASYFRNLKIVDGTNTLREPQGLYFFADKHNCYNVKTGNGGTSWGAHFFYGGPGRNVKCP”, the protein production is reported as “not failed”.

In the case of “MGYFYVLLAAFLWGLIGPLSRMAFQEGLTPLTVAFYRALLSWIFFLAHAARTGGLRVAPRDLPVFPLFGLLGVALFYGAYQLAVLYGGAALASVLLYTAPAWVALLSWAFLREPPTARSWGAVALTLLGVGLLGLGGGSEVRFGVRAFLFGLASGFFYALHYLLGKLYLGRYATPTFFAYALPVAALALAPWAEFGPLTPRALGALLALSLFSTYGAYLAFYAGLRRLPATVASVVATLEPVVAVVLAYLLFGEVLSPLGYFGALLVILAVLLAVRR”, the protein production is reported as “failed”.

In the case of “MTTCAPAVPAQLDVAGDLLALLRDTTTEPRPDIQLEALTLAVAADLPVLLWGEPGIGKTAALTQLATALDLPLTTVIASVHEPSDFSGLPVVGDDPAEQGVPMAPPDWAVRLVRAGRGLLFLDELSTAPPAVQAALLRLVLERRIGALRLPPGVRIVAAANPRSSAADGWELSPPLANRFVHLQWTHDQDVVVRGLGGTWPRAALPSLDPGGLDGAVRYARRAVCAFLTARPGLVHRLPSGETRRGGAWPSPRSWEMTLCLIAFATAAGSSREVLSLLVRGTVGDGPGLELMASLDRMDLPDPETLLADPAGAVLPERGDLRQAVLDGVVAAVRKRPEKSRWDSAWALLARAMETGAPDVVVVPATTLATLRQQDWDIPASIERLAGAMSLSRRADRAADRAAARLAGTARTSGLEHHHHHH”, the protein production is reported as “failed”.

With “MSDTPQAILLMGPTASGKTGLALELARRFPVEIVSVDSALVYRDMDIGTAKPTAEEMAACPHHLIDVISPLQSYSAAQFHADANRLIADIQARGKLPLLVGGTMLYYKALLEGLSDLPQADAALRAELDADAALLGWPAMHARLAELDPATASRLNPNDSQRIHRALEVCLLSGKPMSELIAQGKEAAAGFRFLPLALVPRERGWLHARIAERFRIMLEQGFLDEVSRLRAKYPELTLNLPSMRCVGYRQAWEHQDGLYGHDEFVERGVAATRQLAKRQLTWTRSLDAIPVDAQRDGLAGLLGDAVDDFLAGRPPAESLRYAGDFLEHHHHHH” the protein production was “not failed”.

With “MDFHTDTIILLAGLLFIVGVITAKFSTRLGVPALVLFILVGMLVGSDGLGLIHFDFSQAHFAQLIGIFALVIILFEGGLQTKWKTVQSVAVPSLSLATFGVLITSTLVAVAAKYVLGVSWLEAYLFGAIVGSTDAAAVFAVLKEQNIKDRLATTLEAESGTNDPMAVFLTLSLIELITIGSMNPLHLFGSFLWQMGAGLILGFGLGKLGSYSINKINLDSSGLYPVFALAFALLTYSVTAMIGASGLLAVYVAALVIGNQDLTYRHSIFRFNEGFAWMMQMLMFIILGLLVFPNQLFEASIFIKGILLSLILMLVARPVAVFLTTIKMRFDWKEKLFLSWAGLRGAVPIVLATFPMTAGLENSPLFFNVVFFVVLTSALIQGSTIAHFANKLQLTGPQKTTPLHSLELVSIGKANAEIVELEMKQDTPVIGKTLEEINLPKDVLVNAIIRDEQLITPYGKTTIQADDILYVLVSKKKKRQLKELFQAKES” the protein production was “failed”.

With “MGRVRLQANQMEWRPGIYVGEGTTIASSAQLEPPLWIGQHCYIGEEVQLKAGTVIGDESRIEAGACLDRAVVWNRVQIGQRSHLEGCVLADGVRLERHVQIHEGAVIGSGCRLQEEAQVQAEVRIWPRKQIEAGAILEHHHHHH” the protein production was “failed”.
